Source: patent US20120270234A1, “DDR2 PROTEIN WITH ACTIVATED KINASE ACTIVITY AND PREPARATION METHOD THEREOF” (KOREA INSTITUTE OF SCIENCE AND TECHNOLOGY, priority 2003, published 2012)
Blank lines part the entries; values can stand above or below the molecule they belong to.

What was measured:
c-Src tyrosine kinase = target: T1, c-Src tyrosine kinase (Mus musculus, UniProt P05480, P80A); assay: tyrosine phosphorylation on co-expression with c-Src in insect cells, western blotting with phosphorylated tyrosine specific antibody; assay type: cell-based, Spodoptera frugiperda; settings: glutathione bead purified, FIG. 2, FIG. 4
T1 construct: Full length human c-Src gene was per amplified from the vector of pUSE human O-Src wild (Upstate Biotechnology); host or cells: sf9 insect cells co-infected with two recombinant baculoviruses
Source text: The results shown in FIG. 4 were obtained by co-expressing a fused protein GST-DDR2 CKD, a fused protein (GST-DDR1b CKD) of the GST and the human DDR1b cytosolic tyrosine kinase domain, a fused protein (GST-Akt1) of the GST and the full-length mouse Akt1 kinase and a fused protein (GST-CDK4) of the GST and the full-length human CDK4 kinase with the c-Src protein without GST tagging in insect cells, respectively; purifying the respective expressed product using glutathione beads; performing SDS-PAGE; and performing the western blotting test using a phosphorylated tyrosine specific antibody and coomassie staining.
The results shown in FIG. 4 have been obtained by co-expressing the full-length c-Src protein together with the fused proteins, GST-DDR2 CKD, GST-DDR1b CKD, GST-Akt1 and GST-CDK4, respectively; in sf9 cells, then performing a western blotting test on each purified GST tagged protein using a phosphorylated tyrosine specific antibody. The presence of a similar amount of each purified GST tagged protein was shown by CBB staining.
GST tagged kinase defective DDR2 cytosolic domain (GST-kd-DDR2-CKD) with intact three tyrosines in the activation loop or with various phenylalanine mutations described in the text were co-expressed with Src in sf9 cells. GST tagged proteins were purified and the same amount of proteins estimated by CBB staining was used for western blotting using P-tyro antibody.
Phospho-tyrosine specific antibody was purchased from Cell Signaling Inc, USA. Specific antibodies to human c-Src, human c-Fyn, and she were obtained from SantaCruz, USA. Samples were boiled for 2 min in 1× lameli sample buffer, and loaded in 10% SDS-PAGE. Proteins were transferred to Immobilon-P membrane (Millipore) and blacked by 10% skim milk in TBS for an hour. The membrane was immunoblotted with antibodies for 2 hours and subsequently washed with 1×TBS five times. Then it was incubated with HRP conjugated secondary antibodies for an hour and protein bands were detected using chemiluminescence kit (Amersham).

sf9 cells = assay: tyrosine phosphorylation by H2O2 processing of expressing insect cells, western blotting with phosphorylated tyrosine specific antibody; assay type: cell-based, Spodoptera frugoperda; settings: 200 μM H2O2 for half of an hour; FIG. 2, FIG. 5
Experimental: The results shown in FIG. 5 were obtained by solely expressing the fused proteins, GST-DDR2 CKD, the GST-DDR1b CKD, the GST-CDK4 and the GST-CDK1, respectively, in insect cells; processing with 200 μM of H2O2 for half of an hour; purifying the respective expressed product using glutathione beads; performing the SDS-PAGE; and performing the western blotting test using an phosphorylated tyrosine specific antibody and coomassie staining.
The results shown in FIG. 5 have been obtained by solely expressing GST-DDR2 CKD, GST-DDR1b CKD, GST-CDK4 and GST-CDK1, respectively in sf9 cells; processing each expressed cells with H2O2 of 200 uM for half of an hour or not; and then purifying the GST tagged protein followed by a western blotting using a phosphorylated tyrosine specific antibody. The presence of a similar amount of each purified GST tagged protein was shown by CBB staining.
The recombinant baculoviruses having the GST-DDR2 CKD coding gene were transfected into sf9 insect cells, by setting MOU to 10 and the cells were cultured for 24 to 72 hours, to express the protein. […], at the concentration of 200 μM was added to the cultured cells. The cells were left for half of an hour, and collected. The collected cells were lysed and the GST-DDR2 CKD was purified from the expressed products, using the glutathione agarose bead column chromatography. The purified protein was subjected to an electrophoresis in 10% polyacrylamaid gel.
After completing the electrophoresis, the protein developed in the gel was transferred to nitrocellulose, and then subjected to a western blotting using a phosphorylated tyrosine specific antibody (Cell signaling Inc, USA), to measure the chemiluminescence signal using x-ray film. For the control, the chemical luminescence of the case without H2O2 processing was measured by the method as mentioned above.

tyrosine phosphorylation induced by co-expression with c-Src (c-Src tyrosine kinase): poorly induced or never induced
B1: GST-Akt1: fused protein of the GST and the full-length mouse Akt1 kinase, control (protein)
chain: MNDVAIVKEGWLHKRGEYIKTWRPRYFLLKNDGTFIGYKERPQDVDQRESPLNNFSVAQCQLMKTERPRPNTFIIRCLQWTTVIERTFHVETPEEREEWATAIQTVADGLKRQEEETMDFRSGSPSDNSGAEEMEVSLAKPKHRVTMNEFEYLKLLGKGTFGKVILVKEKATGRYYAMKILKKEVIVAKDEVAHTLTENRVLQNSRHPFLTALKYSFQTHDRLCFVMEYANGGELFFHLSRERVFSEDRARFYGAEIVSALDYLHSEKNVVYRDLKLENLMLDKDGHIKITDFGLCKEGIKDGATMKTFCGTPEYLAPEVLEDNDYGRAVDWWGLGVVMYEMMCGRLPFYNQDHEKLFELILMEEIRFPRTLGPEAKSLLSGLLKKDPTQRLGGGSEDAKEIMQHRFFANIVWQDVYEKKLSPPFKPQVTSETDTRYFDEEFTAQMITITPPDQDDSMECVDSERRPHFPQFSYSASGTA
modifications: left off: a dimerising Fc or GST
notes: fused protein of the GST and the full-length mouse Akt1 kinase, control

tyrosine phosphorylation induced by co-expression with c-Src (c-Src tyrosine kinase): poorly induced or never induced
B2: GST-DDR1b CKD: fused protein of the GST and the human DDR1b cytosolic tyrosine kinase domain, control (protein)
chain: VLEEELTVHLSVPGDTILINNRPGPREPPPYQEPRPRGNPPHSAPCVPNGSALLLSNPAYRLLLATYARPPRGPGPPTPAWAKPTNTQAYSGDYMEPEKPGAPLLPPPPQNSVPHYAEADIVTLQGVTGGNTYAVPALPPGAVGDGPPRVDFPRSRLRFKEKLGEGQFGEVHLCEVDSPQDLVSLDFPLNVRKGHPLLVAVKILRPDATKNARNDFLKEVKIMSRLKDPNIIRLLGVCVQDDPLCMITDYMENGDLNQFLSAHQLEDKAAEGAPGDGQAAQGPTISYPMLLHVAAQIASGMRYLATLNFVHRDLATRNCLVGENFTIKIADFGMSRNLYAGDYYRVQGRAVLPIRWMAWECILMGKFTTASDVWAFGVTLWEVLMLCRAQPFGQLTDEQVIENAGEFFRDQGRQVYLSRPPACPQGLYELMLRCWSRESEQRPPFSQLHRFLAEDALNTV
modifications: left off: a dimerising Fc or GST
notes: fused protein of the GST and the human DDR1b cytosolic tyrosine kinase domain, control
tyrosine phosphorylation induced by H2O2 processing (sf9 cells): poorly induced or never induced

tyrosine phosphorylation induced by co-expression with c-Src (c-Src tyrosine kinase): poorly induced or never induced
B3: GST-CDK4: fused protein of the GST and the full-length human CDK4 kinase, control (protein)
chain: MATSRYEPVAEIGVGAYGTVYKARDPHSGHFVALKSVRVPNGGGGGGGLPISTVREVALLRRLEAFEHPNVVRLMDVCATSRTDREIKVTLVFEHVDQDLRTYLDKAPPPGLPAETIKDLMRQFLRGLDFLHANCIVHRDLKPENILVTSGGTVKLADFGLARIYSYQMALTPVVVTLWYRAPEVLLQSTYATPVDMWSVGCIFAEMFRRKPLFCGNSEADQLGKIFDLIGLPPEDDWPRDVSLPRGAFPPRGPRPVQSVVPEMEESGAQLLLEMLTFNPHKRISAFRALQHSYLHKDEGNPE
modifications: left off: a dimerising Fc or GST
notes: fused protein of the GST and the full-length human CDK4 kinase, control
tyrosine phosphorylation induced by H2O2 processing (sf9 cells): poorly induced or never induced
